Measurements: patent US8841085 (KOREA INSTITUTE OF SCIENCE AND TECHNOLOGY, dated 2014)
Like-named read-outs stand apart in the source and are kept apart here. Blank lines part the entries; values can stand above or below the binder they belong to.

Assays:
Experiment in all cases: cell-based or functional assay
[1] = biological target: MMP-2
[2] = biological target: MMP-3
[3] = biological target: T1, MMP-7
T1 sequence (P09237 95-267, species assumed, looked up): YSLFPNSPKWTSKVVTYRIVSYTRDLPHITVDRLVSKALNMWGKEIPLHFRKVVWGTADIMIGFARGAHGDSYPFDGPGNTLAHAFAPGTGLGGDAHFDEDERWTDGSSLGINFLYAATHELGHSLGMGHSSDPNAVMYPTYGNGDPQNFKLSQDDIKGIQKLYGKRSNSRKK

[4] = biological target: MMP-9
[5] = biological target: MMP-13
[6] = biological target: MMP-2; remark: listed apart in the source
[7] = biological target: MMP-3; remark: listed apart in the source
[8] = biological target: T1, MMP-7; remark: listed apart in the source
[9] = biological target: MMP-9; remark: listed apart in the source
[10] = biological target: MMP-13; remark: listed apart in the source
[11] = biological target: MMP-2; remark: listed apart in the source
[12] = biological target: MMP-3; remark: listed apart in the source
[13] = biological target: T1, MMP-7; remark: listed apart in the source
[14] = biological target: MMP-9; remark: listed apart in the source
[15] = biological target: MMP-13; remark: listed apart in the source
[16] = biological target: MMP-2; remark: listed apart in the source
[17] = biological target: MMP-3; remark: listed apart in the source
[18] = biological target: T1, MMP-7; remark: listed apart in the source
[19] = biological target: MMP-9; remark: listed apart in the source
[20] = biological target: MMP-13; remark: listed apart in the source

fluorescent intensity (FI) recovered after 60 minutes, fold [1]: 3.7 times
fluorescent intensity (FI) recovered after 60 minutes, fold [2]: 2.4 times
fluorescent intensity (FI) recovered after 60 minutes, fold [3]: 0.8 times
fluorescent intensity (FI) recovered after 60 minutes, fold [4]: 1.3 times
fluorescent intensity (FI) recovered after 60 minutes, fold [5]: 4.3 times
fluorescent intensity (FI) at 0 min [6]: 77.4
fluorescent intensity (FI) at 10 min [6]: 91
fluorescent intensity (FI) at 20 min [6]: 125
fluorescent intensity (FI) at 30 min [6]: 151
fluorescent intensity (FI) at 40 min [6]: 189
fluorescent intensity (FI) at 50 min [6]: 238
fluorescent intensity (FI) at 60 min [6]: 287
fluorescent intensity (FI) at 0 min [7]: 102
fluorescent intensity (FI) at 10 min [7]: 128
fluorescent intensity (FI) at 20 min [7]: 143
fluorescent intensity (FI) at 30 min [7]: 174
fluorescent intensity (FI) at 40 min [7]: 200
fluorescent intensity (FI) at 50 min [7]: 217
fluorescent intensity (FI) at 60 min [7]: 249
fluorescent intensity (FI) at 0 min [8]: 104
fluorescent intensity (FI) at 10 min [8]: 90.1
fluorescent intensity (FI) at 20 min [8]: 87.6
fluorescent intensity (FI) at 30 min [8]: 87
fluorescent intensity (FI) at 40 min [8]: 91.5
fluorescent intensity (FI) at 50 min [8]: 94.9
fluorescent intensity (FI) at 60 min [8]: 86.3
fluorescent intensity (FI) at 0 min [9]: 101
fluorescent intensity (FI) at 10 min [9]: 106
fluorescent intensity (FI) at 20 min [9]: 109
fluorescent intensity (FI) at 30 min [9]: 114
fluorescent intensity (FI) at 40 min [9]: 128
fluorescent intensity (FI) at 50 min [9]: 130
fluorescent intensity (FI) at 60 min [9]: 133
fluorescent intensity (FI) at 0 min [10]: 101
fluorescent intensity (FI) at 10 min [10]: 131
fluorescent intensity (FI) at 20 min [10]: 166
fluorescent intensity (FI) at 30 min [10]: 234
fluorescent intensity (FI) at 40 min [10]: 281
fluorescent intensity (FI) at 50 min [10]: 355
fluorescent intensity (FI) at 60 min [10]: 456
B1: PN3 (P3: Cy5.5-Gly-Pro-Leu-Gly-Met-Arg-Gly-Leu-Gly-Lys(BHQ3)-Gly-Gly-COOH conjugated to glycol chitosan-bile acid nanoparticle) (peptide)
peptide: {Cy5.5}-GPLGMRGLGK(BHQ3)GG-{glycol chitosan‑cholanic acid nanoparticle}
modifications: not fully specified; printed as Cy5.5-Gly-Pro-Leu-Gly-Met-Arg-Gly-Leu-Gly-Lys(BHQ3)-Gly-Gly-COOH

fluorescent intensity (FI) recovered after 60 minutes, fold [1]: 9.7 times
fluorescent intensity (FI) recovered after 60 minutes, fold [2]: 2 times
fluorescent intensity (FI) recovered after 60 minutes, fold [3]: 1 times
fluorescent intensity (FI) recovered after 60 minutes, fold [4]: 9.2 times
fluorescent intensity (FI) recovered after 60 minutes, fold [5]: 12.3 times
fluorescent intensity (FI) at 0 min [11]: 379
fluorescent intensity (FI) at 10 min [11]: 952
fluorescent intensity (FI) at 20 min [11]: 1720
fluorescent intensity (FI) at 30 min [11]: 2390
fluorescent intensity (FI) at 40 min [11]: 2920
fluorescent intensity (FI) at 50 min [11]: 3210
fluorescent intensity (FI) at 60 min [11]: 3660
fluorescent intensity (FI) at 0 min [12]: 307
fluorescent intensity (FI) at 10 min [12]: 285
fluorescent intensity (FI) at 20 min [12]: 363
fluorescent intensity (FI) at 30 min [12]: 421
fluorescent intensity (FI) at 40 min [12]: 506
fluorescent intensity (FI) at 50 min [12]: 537
fluorescent intensity (FI) at 60 min [12]: 630
fluorescent intensity (FI) at 0 min [13]: 278
fluorescent intensity (FI) at 10 min [13]: 288
fluorescent intensity (FI) at 20 min [13]: 287
fluorescent intensity (FI) at 30 min [13]: 290
fluorescent intensity (FI) at 40 min [13]: 294
fluorescent intensity (FI) at 50 min [13]: 300
fluorescent intensity (FI) at 60 min [13]: 302
fluorescent intensity (FI) at 0 min [14]: 350
fluorescent intensity (FI) at 10 min [14]: 680
fluorescent intensity (FI) at 20 min [14]: 1350
fluorescent intensity (FI) at 30 min [14]: 2010
fluorescent intensity (FI) at 40 min [14]: 2250
fluorescent intensity (FI) at 50 min [14]: 2850
fluorescent intensity (FI) at 60 min [14]: 3220
fluorescent intensity (FI) at 0 min [15]: 665
fluorescent intensity (FI) at 10 min [15]: 1930
fluorescent intensity (FI) at 20 min [15]: 3930
fluorescent intensity (FI) at 30 min [15]: 5290
fluorescent intensity (FI) at 40 min [15]: 6510
fluorescent intensity (FI) at 50 min [15]: 7610
fluorescent intensity (FI) at 60 min [15]: 8180
B2: PN1 (P1: Cy5.5-Gly-Pro-Leu-Gly-Val-Arg-Gly-Lys(BHQ3)-Gly-Gly-COOH conjugated to glycol chitosan-bile acid nanoparticle) (peptide)
peptide: {Cy5.5}-GPLGVRGK(BHQ3)GG-{glycol chitosan‑cholanic acid nanoparticle}
modifications: not fully specified; printed as Cy5.5-Gly-Pro-Leu-Gly-Val-Arg-Gly-Lys(BHQ3)-Gly-Gly-COOH

fluorescent intensity (FI) recovered after 60 minutes, fold [1]: 1.8 times
fluorescent intensity (FI) recovered after 60 minutes, fold [2]: 3.6 times
fluorescent intensity (FI) recovered after 60 minutes, fold [3]: 3.9 times
fluorescent intensity (FI) recovered after 60 minutes, fold [4]: 1.3 times
fluorescent intensity (FI) recovered after 60 minutes, fold [5]: 4.8 times
fluorescent intensity (FI) at 0 min [16]: 271
fluorescent intensity (FI) at 10 min [16]: 245
fluorescent intensity (FI) at 20 min [16]: 350
fluorescent intensity (FI) at 30 min [16]: 280
fluorescent intensity (FI) at 40 min [16]: 335
fluorescent intensity (FI) at 50 min [16]: 426
fluorescent intensity (FI) at 60 min [16]: 494
fluorescent intensity (FI) at 0 min [17]: 336
fluorescent intensity (FI) at 10 min [17]: 226
fluorescent intensity (FI) at 20 min [17]: 408
fluorescent intensity (FI) at 30 min [17]: 843
fluorescent intensity (FI) at 40 min [17]: 946
fluorescent intensity (FI) at 50 min [17]: 1070
fluorescent intensity (FI) at 60 min [17]: 1230
fluorescent intensity (FI) at 0 min [18]: 328
fluorescent intensity (FI) at 10 min [18]: 653
fluorescent intensity (FI) at 20 min [18]: 993
fluorescent intensity (FI) at 30 min [18]: 1160
fluorescent intensity (FI) at 40 min [18]: 1250
fluorescent intensity (FI) at 50 min [18]: 1310
fluorescent intensity (FI) at 60 min [18]: 1280
fluorescent intensity (FI) at 0 min [19]: 182
fluorescent intensity (FI) at 10 min [19]: 186
fluorescent intensity (FI) at 20 min [19]: 186
fluorescent intensity (FI) at 30 min [19]: 187
fluorescent intensity (FI) at 40 min [19]: 239
fluorescent intensity (FI) at 50 min [19]: 233
fluorescent intensity (FI) at 60 min [19]: 248
fluorescent intensity (FI) at 0 min [20]: 287
fluorescent intensity (FI) at 10 min [20]: 724
fluorescent intensity (FI) at 20 min [20]: 1060
fluorescent intensity (FI) at 30 min [20]: 1230
fluorescent intensity (FI) at 40 min [20]: 1350
fluorescent intensity (FI) at 50 min [20]: 1360
fluorescent intensity (FI) at 60 min [20]: 1370
B3: PN2 (P2: Cy5.5-Gly-Val-Pro-Leu-Ser-Leu-Thr-Met-Gly-Lys(BHQ3)-Gly-Gly-COOH conjugated to glycol chitosan-bile acid nanoparticle) (peptide)
peptide: {Cy5.5}-GVPLSLTMGK(BHQ3)GG-{glycol chitosan‑cholanic acid nanoparticle}
modifications: not fully specified; printed as Cy5.5-Gly-Val-Pro-Leu-Ser-Leu-Thr-Met-Gly-Lys(BHQ3)-Gly-Gly-COOH
